US20240409645A1 (DUALYX, published 2024)
Residue numbers refer to the chain shown, from its start.

T1: human IL-2Rβ (human, UniProt P14784 27-240, limits assumed)
T1 construct: Recombinant protein, coated (ELISA) or immobilised on CM5 (SPR); also called hu IL-2R; interleukin 2 receptor β-chain
T1 sequence: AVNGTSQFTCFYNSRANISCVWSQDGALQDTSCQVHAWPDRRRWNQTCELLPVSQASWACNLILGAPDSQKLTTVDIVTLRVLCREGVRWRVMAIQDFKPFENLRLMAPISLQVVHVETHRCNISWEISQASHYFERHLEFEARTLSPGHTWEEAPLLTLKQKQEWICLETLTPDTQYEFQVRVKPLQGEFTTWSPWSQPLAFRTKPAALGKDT

B1: FJ1427_P035MP03A09 (VHH)
VHH: QVQLVESGGGLVQAGGSLRLACAASGRTFSTLTMGWFRQAPGKEREFVAGISPSGGYAWHADSVKGRFTIDRDNAKNTVYLQTRSLRPEDTAVYYCAADHPPYGAVASRSEYEYDDWGPGTRVTVSS
notes: soluble VHH in periplasmic extract; also called clone nr
B2: FJ1427 P035MP03H10 (VHH)
VHH: QVQLVESGGGLVQAGGSLRLSCAASGRTFSTTEMGWFRQAPGKEREFVAAITWTGRGTMYAESVEGRFTISRENAKNMVYLQMNSLKPEDTAIYYCAAARRGRAAVRSEGGYDFWGQGTQVTVSS
notes: as for B1
B3: FJ1427_P035MP03E10 (VHH)
VHH: EVQLVESGGGLVQPGGSLRLSCAASGFTFRNYAMSWVRQAPGKGLEWVGGITGEGLGTIYQDSVEGRFTISRNNAKNTLYLQMNSLRSEDTAVYYCTKMASGTLFRDKPYEYTSRGQGTQVTVSS
notes: as for B1
B4: FJ1427 P035MP03F11 (VHH)
VHH: QVQLVESGGGLAQAGGSLRLSCAASGRTFSQDAKAWFRQAPGKEREFVAAITWSGRDTDYADSVKGRFTIARDNAKNTVYLQMDSLKPEDTAVYYCAVYPQGTIGPYFRSSNHYDYWGQGTQVTVSS
notes: as for B1
B5: FJ1427_P035MP03G07 (VHH)
VHH: QVQLVESGGGLVQAGGSLRLSCAASGRTFSSDAKGWFRQAPGKEREFVAAITWAGRGTDYADSVKGRFTITRDNAKNMVYLQMSNLKPEDTAVYYCALNPEGVIGPYFRNSNRYNYWGQGTQVTVSS
notes: as for B1
B6: FJ1427_P035MP03G05 (VHH)
VHH: EVQLVESGGGLVQIGGSLRLSCAASGRTFSSITMAYFRQVPGKEREWVAGINFSGTRTFYADSVKGRFLISRDDAKSTMYLQMNSLKPEDTAVYYCAASPRGFYGPGNALYDYWGQGTQVTVSS
notes: as for B1
B7: FJ1427_P035MP03E08 (VHH)
VHH: QVQLVESGGGLVQAGGSLRLSCAAAGRAIENYPVGWFRRAPGKEREFVAAITWISGSTLYADSVKGRFTISRDNAKNTVYLQMSSLKPEDTALYYCAAALKTITRGQNDYSYWGQGTQVTVSS
notes: as for B1
B8: FJ1427 P035MP03F09 (VHH)
VHH: B7 VHH with Q1E, R19T, A25S, I29F, E30S, R39Q, I54L, K65E, Q82L, Y95F
notes: as for B1
B9: FJ1427_P035MP03A07 (VHH)
VHH: QVQLVESGGGLVEAGGSLRLSCAASGRAFNNFPMGWFRQAPGKEREFVAAITWISGSTLYADSVKGRFTISRDKSKNTVYLQMSGLKPEDTALYYCAAALKTITRGQHDYTYWGQGTQVTVSS
notes: as for B1
B10: FJ1427_P035MP03C07 (VHH)
VHH: QVQLVESGGGLVQAGDSLRLSCAASGRSLSTDCMGWVRQAPGKEREFVAGITWGTGSTLYADSVEGRFTISKDNAKNTGYLQMSSLKPEDTAVYYCAVDRYCYRGTVYRDWGRGTQVTVSS
notes: as for B1
B11: FJ1427_P035MP03G08 (VHH)
VHH: QVQLVESGGGLVQAGGSLRLACALSGDVFVRYTMAWFRQAPGKGREFVASVTDSGRTTDYVASVQGRFTVSRDNNKNTVYLQMNSLKPEDTAVYYCAANTDYFQIRSLDRNTWGQGTQVTVSS
notes: as for B1
B12: FJ1427_P035MP06H01 (VHH)
VHH: B11 VHH with Q1E, A21S, L24V, G44E, A62H, Q65K, N75A, S85N, R106K, R110A
notes: as for B1
B13: FJ1427_P035MP06C01 (VHH)
VHH: B11 VHH with A21S, L24A, G44E, A62D, Q65K, N75A, S85A, R106K, R110L
notes: as for B1
B14: FJ1427_P035MP06B02 (VHH)
VHH: QVQLVESGGGLVQAGGSLRLSCVVSGDVFVRYTMAWFRQAPGKEREFVAAVTDSGRTTEYVDSVKGRFTVSRDNAKNTVYLQMNNLKPEDTAVYYCAANTDYFQIRSVDNNAWGQGTQVTVSS
notes: soluble VHH in periplasmic extract; also called clone nr; 490
B15: FJ1427_P035MP03H07 (VHH)
VHH: B14 VHH with Q1E
notes: as for B1
B16: FJ1427_P035MP06A01 (VHH)
VHH: B11 VHH with G44E
notes: as for B1
B17: FJ1427_P035MP06E02 (VHH)
VHH: B14 VHH with V23A, A50T, Q104R, V108L, N110A, A112T
notes: as for B1
B18: FJ1427_P035MP03G11 (VHH)
VHH: B14 VHH with Q1E, V23A, V24A, A50S, E59D, V108L, D109E, N110F, A112T
notes: as for B1
B19: FJ1427_P035MP03G09 (VHH)
VHH: B14 VHH with A50V
notes: as for B1
B20: FJ1427 P035MP06G01 (VHH)
VHH: EVQLVESGGGLVQAGDSLRLSCVVSGRGFSTYTMGWFRQAPGKEREFVAAITWSTGRTSYADSVKGRFTISRENAENTVYLQMNSLELEDTAVYYCATDQVLWTTRPRDMRYWGQGTQVTVSF
notes: as for B1
B21: FJ1427 P035MP03E05 (VHH)
VHH: EVQLVESGGGLVQAGGSLRLSCAVSGVIFWSDVVGWYRQASGKQRELVATINLDDTKHYGEVVKGRFAISRDSHKNAYYLQLNSLKPEDTAVYYCNVRRGSEFYWGQGTQVTVSS
notes: as for B1
B22: FJ1427_P035MP03H09 (VHH)
VHH: QVQLVESGGGLVQAGGSLRLSCAASGSIFSINAMGWFRQAPGKEREFVAAISRSGGSTAYVDSVKGRFTISRDNSKNMVHLQMNSLKSEDEAVYYCAATAAVGWTSRWITTDFDSWGQGTQVTVSS
notes: as for B1
B23: FJ1427_P035MP03D10 (VHH)
VHH: QVQLQESGGGLVQAGDSLRLSCVVSGRDFSGYTMGWFRQPPGKEREFVALITWSTGRVHYTDSVEGRFTISRDSAKNTVYLQMNSLKPEDTAVYTCAAGRVGYTTNLHSYDYSGQGTQVIVSA
notes: as for B1
B24: FJ1427_P035MP03G10 (VHH)
VHH: QVQLVESGGGLVQAGGSLRLSCAASGRSYAMGWFRQAPGKEREFVAAISWSASSTYYSESVKGRFTISRENAKNTVYLQMNSLKPEDTAVYYCAVRASPFVAGSYDPSDDPADYGSWGQGTQVIVSS
notes: as for B1
B25: FJ1427 P035MP03C12 (VHH)
VHH: QVQLVESGGGLVQAGGSLRLSCAASGRAFSTYSMGWFRQTPGKEREFVAIISESGGIIDYGDSVKGRFTLSRDNAKNTVSLQMSSLQPEDTAVYYCAAARDWFARTAYQYDYWGQGTQVTVSA
notes: as for B1
B26: FJ1427 P035MP03D11 (VHH)
VHH: QVQLVESGGGLVQAGGSLRLSCAASGRTFSTTDVGWFRQAPGKEREFVAAITWSSHSTLYADSVEGRFTVTRENAKNTVYLQMNSLKPEDTAVYYCAAVRRGWAVVRTEGAYDFWGQGTQVTVSA
notes: as for B1
B27: FJ1427 P035MP03A06 (VHH)
VHH: EVQLVESGGGLVQTGGSLRLSCAVSGSRFISDVMGWYRQVPGKARELVADMADGGSAKYADSVKGRFSIVRDSGKSTMYLQMSSLKPEDTGMYYCKAGLWIAGRHSDYWGQGTQVTVSS
notes: as for B1

Key:
[1] = biological target: T1, human IL-2Rβ; experiment: SPR (Biacore), P.E. off-rate ranking
[2] = biological target: T1, human IL-2Rβ; experiment: P.E. binding ELISA on coated protein
Procedure, shortened: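 Human or mouse IL-2Rα, IL-2Rβ or IL-2Rγ protein coated directly overnight at 4° C, blocked with 4% Marvel/PBS for 1 hour.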

| Binder | koff [1] [s⁻¹] | P.E. binding ELISA OD [2] [OD450 nm] |
| --- | --- | --- |
| B1 | 0.00048 | 0.208 |
| B2 | 0.00109 | 0.578 |
| B3 | 0.00207 | 0.398 |
| B4 | 0.000277 | 0.474 |
| B5 | 0.00286 | 0.201 |
| B6 | 0.000351 | 0.914 |
| B7 | 0.000149 | 1.11 |
| B8 | 0.000347 | 0.621 |
| B9 | 0.000281 | 0.307 |
| B10 | 0.000533 | 0.372 |
| B11 | 0.00055 | 1.26 |
| B12 | 0.00101 | 0.72 |
| B13 | 0.000544 | 1.34 |
| B14 | 0.000853 | 0.435 |
| B15 | 0.00172 | 0.649 |
| B16 | 0.000561 | 0.348 |
| B17 | 0.00149 | 0.148 |
| B18 | 0.00122 | 0.38 |
| B19 | 0.000713 | 0.843 |
| B20 | 0.000143 | 0.557 |
| B21 | 0.000526 | 0.23 |
| B22 | 0.00184 | 0.166 |
| B23 | 0.0012 | 0.118 |
| B24 | 0.00165 | 0.26 |
| B25 | 0.0014 | 0.321 |
| B26 | 0.00102 | 0.118 |
| B27 | 0.000195 | 0.393 |
